Experimental data reported in PMC2198845 (The Journal of Cell Biology, 2001).

Molecular target: the molecule itself
Assay: cross-linking

B1: endophilin NH2-terminal 125 amino acid fragment (domain or fragment, rat, UniProt O35179 1-125, looked up)
chain: MSVAGLKKQFHKATQKVSEKVGGAEGTKLDDDFKEMERKVDVTSRAVMEIMTKTIEYLQPNPASRAKLSMINTMSKIRGQEKGPGYPQAEALLAEAMLKFGRELGDDCNFGPALGEVGEAMRELS
- stoichiometry N: 2
